# Read-outs that look alike come from different tables or passages of the source.
# Legend:
# CaBdf1 BD2 Y425F = molecular target: T1, CaBdf1 BD2 Y425F (Candida albicans, UniProt Q5A4W8, Y425F); assay: Histone peptide microarray binding, YF mutant;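 as to CaBdf1 BD2 Normalized (0 to 100%) YF mutant: normalized to spotted c-myc peptide positive control signal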; design: species or system C. albicans; settings: YF mutant BD2; for CaBdf1 BD2 Normalized (0 to 100%) YF mutant: normalized array signal; for CaBdf1 BD2 Raw data YF mutant: peptide array signal
# T1 construct: made in house; host or cells: E. coli BL21(DE3), inferred from the wild-type GST construct
# Procedure: (§1) In short, arrays were blocked and incubated with 1 μM of purified CaBdf1 BD1 or BD2. Arrays were incubated with recombinant BDs for 2 h at 4 °C in binding buffer (Tris-HCl 50 mM pH 7.4, NP-40 0.1%, NaCl 150 mM, glycerol 10%). […] Assays were performed in duplicate. Images were acquired on a Bio-Rad ChemiDoc XRS Imaging machine and data were quantified using the array analyser software provided by Active Motif.
# CaBdf1 BD1 Y248F = molecular target: T2, CaBdf1 BD1 Y248F (Candida albicans, UniProt Q5A4W8, Y248F); assay: Histone peptide microarray binding, YF mutant;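 as to CaBdf1 BD1 Normalized (0 to 100%) YF mutant: normalized to spotted c-myc peptide positive control signal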; design: species or system C. albicans; settings: YF mutant BD1; for CaBdf1 BD1 Normalized (0 to 100%) YF mutant: normalized array signal; for CaBdf1 BD1 Raw data YF mutant: peptide array signal
# T2 construct: made in house; host or cells: E. coli BL21(DE3), inferred from the wild-type GST construct
# Procedure: as §1
# CaBdf1 BD1 = molecular target: T3, CaBdf1 BD1 (Candida albicans, UniProt Q5A4W8); type: binding; settings: wild-type BD1; for CaBdf1 BD1 Normalized (0 to 100%) WT: normalized array signal; for CaBdf1 BD1 Raw data WT: peptide array signal;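 as to CaBdf1 BD1 Normalized (0 to 100%) WT: normalized to spotted c-myc peptide positive control signal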
# T3 construct: made in house; host or cells: E. coli BL21(DE3)
# T3 sequence (Q5A4W8 whole entry, looked up): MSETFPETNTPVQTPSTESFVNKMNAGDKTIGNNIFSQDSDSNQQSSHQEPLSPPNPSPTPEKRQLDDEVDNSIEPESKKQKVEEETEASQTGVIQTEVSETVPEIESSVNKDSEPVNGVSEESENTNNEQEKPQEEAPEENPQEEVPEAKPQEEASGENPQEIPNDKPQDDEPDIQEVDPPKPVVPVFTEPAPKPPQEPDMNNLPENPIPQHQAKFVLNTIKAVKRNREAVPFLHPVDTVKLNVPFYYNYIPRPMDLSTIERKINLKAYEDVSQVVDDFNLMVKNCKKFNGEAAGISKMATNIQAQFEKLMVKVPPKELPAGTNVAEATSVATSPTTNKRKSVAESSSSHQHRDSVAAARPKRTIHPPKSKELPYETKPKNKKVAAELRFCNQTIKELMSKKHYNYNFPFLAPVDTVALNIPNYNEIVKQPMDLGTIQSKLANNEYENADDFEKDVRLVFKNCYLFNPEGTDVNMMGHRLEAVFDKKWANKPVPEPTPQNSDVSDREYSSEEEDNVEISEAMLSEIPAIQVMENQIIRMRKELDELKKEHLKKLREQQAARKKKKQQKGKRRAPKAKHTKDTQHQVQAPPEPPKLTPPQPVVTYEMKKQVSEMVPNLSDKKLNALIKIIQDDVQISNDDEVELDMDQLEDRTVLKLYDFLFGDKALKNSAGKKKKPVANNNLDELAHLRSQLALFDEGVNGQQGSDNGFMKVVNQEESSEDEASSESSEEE
# Procedure: (§2) In short, arrays were blocked and incubated with 1 μM of purified CaBdf1 BD1 or BD2. Arrays were incubated with recombinant BDs for 2 h at 4 °C in binding buffer (Tris-HCl 50 mM pH 7.4, NP-40 0.1%, NaCl 150 mM, glycerol 10%). […] Assays were performed in duplicate.
# CaBdf1 BD2 = molecular target: T4, CaBdf1 BD2 (Candida albicans, UniProt Q5A4W8); type: binding; settings: wild-type BD2; for CaBdf1 BD2 Normalized (0 to 100%) WT: normalized array signal; for CaBdf1 BD2 Raw data WT: peptide array signal;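 as to CaBdf1 BD2 Normalized (0 to 100%) WT: normalized to spotted c-myc peptide positive control signal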
# T4 construct: made in house; host or cells: E. coli BL21(DE3)
# T4 sequence (Q5A4W8 whole entry, looked up): T3 sequence (Q5A4W8 whole entry, looked up)
# Procedure: as §2
# T1 sequence (Q5A4W8 361-501 Y425F): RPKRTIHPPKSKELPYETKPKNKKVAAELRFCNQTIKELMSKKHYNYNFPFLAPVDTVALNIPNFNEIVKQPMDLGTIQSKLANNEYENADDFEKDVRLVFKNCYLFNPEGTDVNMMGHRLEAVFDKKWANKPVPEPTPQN
# T2 sequence (Q5A4W8 193-327 Y248F): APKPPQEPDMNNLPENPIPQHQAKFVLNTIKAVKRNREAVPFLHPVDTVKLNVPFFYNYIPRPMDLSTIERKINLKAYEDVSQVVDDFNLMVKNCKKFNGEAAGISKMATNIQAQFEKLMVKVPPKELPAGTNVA
Sequence,CaBdf1 BD2 Normalized (0 to 100%) YF mutant (CaBdf1 BD2 Y425F),CaBdf1 BD2 Raw data YF mutant (CaBdf1 BD2 Y425F; first of two raw-data columns),CaBdf1 BD2 Raw data YF mutant (CaBdf1 BD2 Y425F),CaBdf1 BD1 Normalized (0 to 100%) YF mutant (CaBdf1 BD1 Y248F),CaBdf1 BD1 Raw data YF mutant (CaBdf1 BD1 Y248F; first of two raw-data columns),CaBdf1 BD1 Raw data YF mutant (CaBdf1 BD1 Y248F),CaBdf1 BD1 Normalized (0 to 100%) WT (CaBdf1 BD1),CaBdf1 BD1 Raw data WT (CaBdf1 BD1; first of two raw-data columns),CaBdf1 BD1 Raw data WT (CaBdf1 BD1),CaBdf1 BD2 Normalized (0 to 100%) WT (CaBdf1 BD2),CaBdf1 BD2 Raw data WT (CaBdf1 BD2; first of two raw-data columns),CaBdf1 BD2 Raw data WT (CaBdf1 BD2)
A Rme2s T Kac Q T A R Kme1 S T G G K A P R K Q,0.244%,0.002427,0.002427,0.727%,0.007202,0.002743,0.798%,0.009621,0.005879,0.333%,0.01304,0.004804
A Rme2s T Kme1 Q T A R Kme3 S T G G K A P R K Q,0.195%,–,–,0.727%,0.007202,0.002743,0.326%,0.00481,0.003741,0.259%,0.0151,0.001373
A Rme2s T Kme2 Q T A R Kme1 S T G G K A P R K Q,0.244%,0.002427,0.003398,0.762%,–,0.005144,0.544%,0.006414,0.005345,0.444%,0.01441,0.005491
A Rme2a T Kme2 Q T A R Kme2 S T G G K A P R K Q,0.0977%,0.0009709,0.002427,0.727%,0.007202,0.002401,0.399%,0.00481,0.00481,0.222%,0.0151,0.0006863
A Rme2s T Kme2 Q T A R Kme3 S T G G K A P R K Q,0.44%,0.004369,0.002427,0.312%,0.003086,0.002058,0.145%,0.004276,0.001603,0.444%,0.01716,0.002745
A Rme2s T Kme1 Q T A Rme2s K S T G G K A P R K Q,0.147%,0.001456,0.001456,0.45%,0.004458,0.01166,0.326%,0.004276,0.004276,0.444%,0.006863,0.01304
A Rme2s T Kac Q T A R Kme3 S T G G K A P R K Q,0.293%,–,–,0.727%,0.007202,0.004458,0.616%,0.005879,0.006948,0.259%,0.01579,0.0006863

# Source: publication PMC5454392, “Selective BET bromodomain inhibition as an antifungal therapeutic strategy” (Nature Communications, 2017)
